Data on 59 variants can be found in the MegaScale stability set (Tsuboyama et al. 2023).

B1: EEHEE_rd4_0363 (parent)
chain: VTVDIKGMEYHFDNPEEAKKFAERMAKELGGELKVENGTLKVE

The variants in the data set derive from B1. In words: folding stability dG (cDNA display proteolysis); higher = more stable. The conditions noted are these: PBS, room temperature.
Consider VTVDIKGMEYHFDNPEEAKKFAERMAKELMGELKVENGTLKVE [G30M], for which the “folding stability dG” value is 1.55 kcal/mol.

In the case of VTVDIKGMEYHFDNPEEAKKFAERMAKELRGELKVENGTLKVE [G30R], the “folding stability dG” value came out at 1.6 kcal/mol.

For the variant VTVDIKGMEYHFDNPEEAKKFAERMAKELNGELKVENGTLKVE [G30N], the “folding stability dG” value is 1.93 kcal/mol.

With VTVDIKGMEYHFDNPEEAKKFAERMAKELSGELKVENGTLKVE [G30S], the “folding stability dG” value was 1.5 kcal/mol.

As for VTVDIKGMEYHFDNPEEAKKFAERMAKELYGELKVENGTLKVE [G30Y], the “folding stability dG” value worked out at 1.27 kcal/mol.

On to VTVDIKGMEYHFDNPEEAKKFAERMAKELTGELKVENGTLKVE [G30T], for which the “folding stability dG” value was found to be 1 kcal/mol.

VTVDIKGMEYHFDNPEEAKKFAERMAKELFGELKVENGTLKVE [G30F]: the “folding stability dG” value was determined as 1.43 kcal/mol.

Take VTVDIKGMEYHWDNPEEAKKFAERMAKELGGELKVENGTLKVE [F12W]: the “folding stability dG” value was determined as 0.074 kcal/mol.

Take VTVDIKGMEYHLDNPEEAKKFAERMAKELGGELKVENGTLKVE [F12L]: the “folding stability dG” value stood at 0.213 kcal/mol.

In the case of VTVDIKGMEYHTDNPEEAKKFAERMAKELGGELKVENGTLKVE [F12T], the “folding stability dG” value is -0.58 kcal/mol.

With VTVDIKGMEYHFDNPEEAKKFAERMAKELGGELKVRNGTLKVE [E36R], the “folding stability dG” value is 1.45 kcal/mol.

For the variant VTVDIKGMEYHFDNPEEAKKFAERMAKELGGELKVMNGTLKVE [E36M], the “folding stability dG” value was determined as 1.84 kcal/mol.

As to VTVDIKGMEYHFDNPEEAKKFAERMAKELGGELKVINGTLKVE [E36I], the “folding stability dG” value came to 2.43 kcal/mol.

In the case of VTVDIKGMEYHFDNPEEAKKFAERMAKELGGELKVENGSLKVE [T39S], the “folding stability dG” value came out at 1.69 kcal/mol.

Turning to VTVDIKGMEYHFDNPEEAKKFAERMAKELGGELKVENGLLKVE [T39L], the “folding stability dG” value worked out at 2.13 kcal/mol.

As to VTVDIKGMEYHFDNPEEAKKFAERMAKELGGELKVENHTLKVE [G38H], the “folding stability dG” value is 1.25 kcal/mol.

For VTVDIKGMEYHFDNPEEAKKFAERMAKELGGELKVENLTLKVE [G38L], the “folding stability dG” value was 1.02 kcal/mol.

In the case of VDVDIKGMEYHFDNPEEAKKFAERMAKELGGELKVENGTLKVE [T2D], the “folding stability dG” value stood at 0.711 kcal/mol.

Turning to VYVDIKGMEYHFDNPEEAKKFAERMAKELGGELKVENGTLKVE [T2Y], the “folding stability dG” value is 1.52 kcal/mol.

On to VSVDIKGMEYHFDNPEEAKKFAERMAKELGGELKVENGTLKVE [T2S], for which the “folding stability dG” value is 1.31 kcal/mol.

Take VTVDIKGMEYHFDNPEEFKKFAERMAKELGGELKVENGTLKVE [A18F]: the “folding stability dG” value stood at 0.719 kcal/mol.

In the case of VTVDIKGMEYHFDNPEEYKKFAERMAKELGGELKVENGTLKVE [A18Y], the “folding stability dG” value came out at 0.753 kcal/mol.

Take VTVDIKGMEYRFDNPEEAKKFAERMAKELGGELKVENGTLKVE [H11R]: the “folding stability dG” value worked out at 1.87 kcal/mol.

VTVDIKGMEYSFDNPEEAKKFAERMAKELGGELKVENGTLKVE [H11S]: the “folding stability dG” value was found to be 1.33 kcal/mol.

In the case of VTVDIKGMEYVFDNPEEAKKFAERMAKELGGELKVENGTLKVE [H11V], the “folding stability dG” value was determined as 1.84 kcal/mol.

Turning to VTVDIKGMEYTFDNPEEAKKFAERMAKELGGELKVENGTLKVE [H11T], the “folding stability dG” value was found to be 1.77 kcal/mol.

As to VTVDIKGMEYHFNNPEEAKKFAERMAKELGGELKVENGTLKVE [D13N], the “folding stability dG” value came out at 1.88 kcal/mol.

VTVDIKGMEYHFMNPEEAKKFAERMAKELGGELKVENGTLKVE [D13M]: the “folding stability dG” value turned out to be 1.68 kcal/mol.

VTVDIKGMEYHFHNPEEAKKFAERMAKELGGELKVENGTLKVE [D13H]: the “folding stability dG” value stood at 1.58 kcal/mol.

On to VTVDIKGMEYHFDNGEEAKKFAERMAKELGGELKVENGTLKVE [P15G], for which the “folding stability dG” value stood at 1.39 kcal/mol.

Take VTVDIKGMEYHFDNCEEAKKFAERMAKELGGELKVENGTLKVE [P15C]: the “folding stability dG” value amounted to 2.33 kcal/mol.

As for VTVDIKGMEYHFDNPEEAKKFAELMAKELGGELKVENGTLKVE [R24L], the “folding stability dG” value stood at 1.99 kcal/mol.

Regarding VTVDIEGMEYHFDNPEEAKKFAERMAKELGGELKVENGTLKVE [K6E], the “folding stability dG” value is 2.26 kcal/mol.

As for VTVDIFGMEYHFDNPEEAKKFAERMAKELGGELKVENGTLKVE [K6F], the “folding stability dG” value is 3.4 kcal/mol.

In the case of VTVDIVGMEYHFDNPEEAKKFAERMAKELGGELKVENGTLKVE [K6V], the “folding stability dG” value was determined as 1.81 kcal/mol.

On to VTVDIAGMEYHFDNPEEAKKFAERMAKELGGELKVENGTLKVE [K6A], for which the “folding stability dG” value worked out at 2.53 kcal/mol.

Turning to VTVDIHGMEYHFDNPEEAKKFAERMAKELGGELKVENGTLKVE [K6H], the “folding stability dG” value stood at 2.74 kcal/mol.

In the case of VTVDIKGMEYHFDNPEEAKKFAERMNKELGGELKVENGTLKVE [A26N], the “folding stability dG” value came out at 0.898 kcal/mol.

As to VTVDIKGMEYHFDNPEEAKKFAERMAKELGGELKVENGTLTVE [K41T], the “folding stability dG” value came out at 1.73 kcal/mol.

Take VTVDIKGMEYHFDNPEEAKKFAERMAKELGGELKVENGTLLVE [K41L]: the “folding stability dG” value was 1.62 kcal/mol.

For the variant VTVDIKGMEYHFDNPEEAKKFAERMAKELGGELKVENGTLMVE [K41M], the “folding stability dG” value amounted to 1.63 kcal/mol.

As to VTVDIKGMEYHFDLPEEAKKFAERMAKELGGELKVENGTLKVE [N14L], the “folding stability dG” value is 1.02 kcal/mol.

VTVDIKGMEYHFDAPEEAKKFAERMAKELGGELKVENGTLKVE [N14A]: the “folding stability dG” value was 0.941 kcal/mol.

As to VTVDIKGMEYHFDYPEEAKKFAERMAKELGGELKVENGTLKVE [N14Y], the “folding stability dG” value turned out to be 0.952 kcal/mol.

For the variant VTVDIKGMEYHFDCPEEAKKFAERMAKELGGELKVENGTLKVE [N14C], the “folding stability dG” value is 1.81 kcal/mol.

On to VTVDIKGMEYHFDIPEEAKKFAERMAKELGGELKVENGTLKVE [N14I], for which the “folding stability dG” value is 0.929 kcal/mol.

As to VTVDIKGMEYHFDNPEEAKKFAERMAKELGGDLKVENGTLKVE [E32D], the “folding stability dG” value was 1.67 kcal/mol.

For the variant VTVDIKGMEYHFDNPEEAKKFAERMAKELGGRLKVENGTLKVE [E32R], the “folding stability dG” value was found to be 2.23 kcal/mol.

Turning to VTVDIKGMEYHFDNPEEAKKFAERMAKELGGPLKVENGTLKVE [E32P], the “folding stability dG” value worked out at 0.989 kcal/mol.

For VTVDIKGMEYHFDNPEEAKKFAERMAKELGGCLKVENGTLKVE [E32C], the “folding stability dG” value was determined as 2.56 kcal/mol.

For the variant VTVDIKGMEYHFDNPEEAKKFAERMAKELGGKLKVENGTLKVE [E32K], the “folding stability dG” value amounted to 2.43 kcal/mol.

Regarding VTVDIKGMEYHFDNPEEAKKFAERQAKELGGELKVENGTLKVE [M25Q], the “folding stability dG” value was 1.05 kcal/mol.

With VTVDIKGMEYHFDNPEEAKKFAERHAKELGGELKVENGTLKVE [M25H], the “folding stability dG” value was 0.844 kcal/mol.

VTVDIKGMEYHFDNPEEAKKFAERGAKELGGELKVENGTLKVE [M25G]: the “folding stability dG” value was 0.03 kcal/mol.

For VTVDIKGMEYHFDNPEEAKKFAERMAAELGGELKVENGTLKVE [K27A], the “folding stability dG” value came to 2.15 kcal/mol.

Regarding VTVDIKGMEYHFDNPEEAKKFAERMACELGGELKVENGTLKVE [K27C], the “folding stability dG” value is 2.48 kcal/mol.

In the case of VTVDIKGMEYHFDNPEEAKKFAERMAGELGGELKVENGTLKVE [K27G], the “folding stability dG” value is 1.35 kcal/mol.

As to VTVDIKGMEYHFDNPEEAKKFAERMAKELGGELKVENGTLKFE [V42F], the “folding stability dG” value is 1.02 kcal/mol.

For the variant VTVDIKGMEYHFDNPEEAKKFAERMAKELGGELKVENGTLKIE [V42I], the “folding stability dG” value turned out to be 2 kcal/mol.
